Source: publication PMC11984713

Biological target: FLAG-SpbK (Bacillus subtilis (ICEBs1))

## YonE-Myc (natural protein)
  fold decrease in cellular levels of NAD^+ 15 to 30 minutes after induction of yonE in cells expressing spbK (untagged proteins): 100 fold
